Data on 2 molecules can be found in paper PMC5496861, “Yeast Cip1 is activated by environmental stress to inhibit Cdk1–G1 cyclins via Mcm1 and Msn2/4”.

The target in the data set is T1, GST-Msn2(401-704) (Saccharomyces cerevisiae, UniProt P33748 401-704).
T1 sequence: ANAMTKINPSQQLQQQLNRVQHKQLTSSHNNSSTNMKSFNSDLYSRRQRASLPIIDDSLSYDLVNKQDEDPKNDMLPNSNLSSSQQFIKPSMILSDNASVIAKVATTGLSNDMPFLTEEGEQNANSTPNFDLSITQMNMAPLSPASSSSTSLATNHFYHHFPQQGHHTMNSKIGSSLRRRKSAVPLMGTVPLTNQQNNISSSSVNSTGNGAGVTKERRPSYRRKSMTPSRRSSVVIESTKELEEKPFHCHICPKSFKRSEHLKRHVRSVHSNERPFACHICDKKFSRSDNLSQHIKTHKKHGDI
The experiment in a line: EMSA; 100 ng protein, 32P-end-labeled ds oligos, 4% nondenaturing polyacrylamide gel; buffer, salt, pH and temperature not given (as previously described, ref 64). As to conditions: protein: recombinant; tags: N-terminal GST (pGEX4T-1); label: 32P end label; blunt. For orientation: Mobility shift assays separate free from complexed probe on a gel.

B1: STRE II (dsDNA)
DNA 1: GTATTTTCCTCCCCCTAGCTTCAAC
DNA 2: GTTGAAGCTAGGGGGAGGAAAATAC
For B1, the binding result is recorded as “binds”.

B2: STRE I (dsDNA)
DNA 1: GGAACTCGCGCAGGGGGAAGACATA
DNA 2: TATGTCTTCCCCCTGCGCGAGTTCC
Turning to B2, the binding result is “binds”.
